This is an account of results in article PMC10996581 (The Journal of Cell Biology, 2024).

Where no end group is shown, it is not given here.

The target in experiment [1] is T1, IRE1αLDΔ308–357 mutant (human, UniProt O75460 24-443, Δ308–357).
T1 sequence: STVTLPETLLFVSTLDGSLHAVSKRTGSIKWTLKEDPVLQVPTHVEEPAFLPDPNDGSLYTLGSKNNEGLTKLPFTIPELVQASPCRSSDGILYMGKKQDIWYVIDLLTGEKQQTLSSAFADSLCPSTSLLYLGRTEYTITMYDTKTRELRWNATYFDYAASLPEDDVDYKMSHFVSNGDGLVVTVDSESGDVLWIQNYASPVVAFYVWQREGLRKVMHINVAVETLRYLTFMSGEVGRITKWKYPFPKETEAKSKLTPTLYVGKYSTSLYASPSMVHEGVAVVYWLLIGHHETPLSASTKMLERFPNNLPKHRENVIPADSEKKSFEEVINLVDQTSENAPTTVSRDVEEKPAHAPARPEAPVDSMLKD
Put plainly: […].

Experiment [2] deals with T1, IRE1αLDΔ308–357 mutant. Put plainly: MST.

Consider IYGWYRVHFGVLDEQLHR (also: 5-FAM labelled, position not given here) [CTxA_(I124-R141) peptide, 5-FAM labelled], for which the binding result in experiment [1] is “binds”.

B1: His6-CTxA1 (enzymatic A1 chain of the cholera toxin A subunit) (domain or fragment)
chain: NDDKLYRADSRPPDEIKQSGGLMPRGQSEYFDRGTQMNINLYDHARGTQTGFVRHDDGYVSTSISLRSAHLVGQTILSGHSTYYIYVIATAPNMFNVNDVLGAYSPHPDEQEVSALGGIPYSQIYGWYRVHFGVLDEQLHRNRGYRDRYYSNLDIAPAADGYGLAGFPPEHRAWREEPWIHHAPPGCGNAPRSS
For B1, the binding result in experiment [2] is “binds”.
